From patent publication US20040037843A1
Ends that are not written are not given here.

Each binder was assayed against HLA-A*2401 (human) (assay: competition with 125I-labelled probe peptide for purified HLA, gel filtration). Conditions: not given.
CYASGWGSI [Kallikrein position 152, 9 amino acids] was tested, and the relative binding ratio (IC50 of standard peptide / IC50 of test peptide) was 0.17.
In the case of AMTNLAALF [PAP position 116, 9 amino acids], the relative binding ratio (IC50 of standard peptide / IC50 of test peptide) is reported as 0.015.
Binder GWGSIEPEEF [Kallikrein position 156, 10 amino acids] has a relative binding ratio (IC50 of standard peptide / IC50 of test peptide) of 0.0001.
GFLFLLFFWL [PAP position 17, 10 amino acids] gave a relative binding ratio (IC50 of standard peptide / IC50 of test peptide) of 0.0007.
For IWSKVYDPL [PAP position 205, 9 amino acids], the relative binding ratio (IC50 of standard peptide / IC50 of test peptide) was 0.0024.
Binder FFWLDRSVL [PAP position 23, 9 amino acids] has a relative binding ratio (IC50 of standard peptide / IC50 of test peptide) of 0.0017.
Work on DFIATLGKL [PAP position 186, 9 amino acids] yielded a relative binding ratio (IC50 of standard peptide / IC50 of test peptide) of 0.0002.
Work on GFLFLLFFW [PAP position 17, 9 amino acids] yielded a relative binding ratio (IC50 of standard peptide / IC50 of test peptide) of 0.0016.
For HYRKWIKDTI [Kallikrein position 248, 10 amino acids], the relative binding ratio (IC50 of standard peptide / IC50 of test peptide) was 0.055.
For EYIRKRYRKF [PAP position 83, 10 amino acids], the relative binding ratio (IC50 of standard peptide / IC50 of test peptide) was 0.0067.

What follows are binders tested against HLA-A*0201 (human) (assay: not given). Conditions: remark: other sources report otherwise.
For ALGTTCYA [PSA.143], the IC50 was < 0.2 µM.
In the case of VLAGGFFLL [PSM.27], the IC50 is reported as < 0.2 µM.
FLRPRSLQCV [HuK2.165] was tested, and the IC50 was < 0.2 µM.
FLTPKKLQCV [PSA.161] was tested, and the IC50 was < 0.2 µM.
With ALDVYNGLL [PAP.299] the IC50 was < 0.2 µM.
For MLLRLSEPA [PSA.118 (9-mer …)], the IC50 was < 0.2 µM.
LLFFWLDRSV [PAP.21] was tested, and the IC50 was < 0.2 µM.
IMYSAHDTTV [PAP.284] was tested, and the IC50 was < 0.2 µM.
In the case of LVLAGGFFL [PSM.26], the IC50 is reported as < 0.2 µM.
For FLNESYKHEQV [PAP.92], the IC50 was < 0.2 µM.
With VLAKELKFV [PAP.30] the IC50 was < 0.2 µM.
In the case of KLQCVDLHV [PSA.166], the IC50 is reported as < 0.2 µM.
For ILLWQPIPV [PAP.135], the IC50 was < 0.2 µM.
LMLLRLSEPA [PSA.117] was tested, and the IC50 was < 0.2 µM.
SLHLLSNDMCA [HuK2.175] was tested, and the IC50 was < 0.2 µM.
In the case of GLPSIPVHPI [PSM.288], the IC50 is reported as < 0.2 µM.
In the case of LLQERGVAYI [PSM.441], the IC50 is reported as < 0.2 µM.
In the case of RMMNDQLMFL [PSM.662], the IC50 is reported as < 0.2 µM.
GMPEGDLVYV [PSM.168] was tested, and the IC50 was < 0.2 µM.
QLMFLERAFI [PSM.667] was tested, and the IC50 was < 0.2 µM.
In the case of ALFDIESKV [PSM.711], the IC50 is reported as < 0.2 µM.

Biological target: HLA-A*0201 (human)
Experiment: not given
Conditions: remark: other sources report otherwise
Remark: another data set of the same source
In the case of ALSVGCTGV [peptide 1418.15 (HuK2.9.V9)], the IC50 is reported as 0.024 µM.
DLMLLRLSEPV [peptide 63.0109 (HuK2.120.V11)] showed an IC50 of 0.05 µM.

What follows are binders tested against HLA-A*0203 (human) (assay: not given). Conditions: remark: other sources report otherwise.
In the case of HLLSNDMCARA (not fully specified) [peptide 1419.15 (HuK2.177)], the IC50 is reported as 0.25 µM.
FLRPRSLQCV [peptide 1419.07 (HuK2.165)] showed an IC50 of 0.0042 µM.

Each binder was assayed against HLA-A*2401 (purified HLA class I molecule) (human) (assay: competition with 125I-labelled standard peptide for purified HLA, gel filtration). Conditions: not given.
SWPQGFGQL [PAP position 62, 9 amino acids] gave a relative binding ratio (IC50 of standard peptide / IC50 of test peptide) of 0.0013.
PYASCHLTEL [PAP position 309, 10 amino acids] gave a relative binding ratio (IC50 of standard peptide / IC50 of test peptide) of 0.024.
In the case of PYKDFIATL [PAP position 183, 9 amino acids], the relative binding ratio (IC50 of standard peptide / IC50 of test peptide) is reported as 0.11.
SYKHEQVYI [PAP position 96, 9 amino acids] showed a relative binding ratio (IC50 of standard peptide / IC50 of test peptide) of 0.26.
Binder RFAELVGPVI [PAP position 355, 10 amino acids] has a relative binding ratio (IC50 of standard peptide / IC50 of test peptide) of 0.0037.
With RFQELESETL [PAP position 163, 10 amino acids] the relative binding ratio (IC50 of standard peptide / IC50 of test peptide) was 0.0001.
In the case of VFRHGDRSPI [PAP position 41, 10 amino acids], the relative binding ratio (IC50 of standard peptide / IC50 of test peptide) is reported as 0.0005.

Each binder was assayed against HLA-A*0206 (human) (assay: inhibition of 125I probe peptide binding to purified HLA). Conditions: remark: other sources report otherwise.
Binder LLARAASLSL [Peptide 20.0203 … (PAP.7)] has an IC50 of 9.25 µM.
For LLLARAASV [Peptide 60.0201 … (PAP.6.V9)], the IC50 was 0.095 µM.
Binder AASLSLGFLFL [Peptide 63.0137 … (PAP.11)] has an IC50 of 0.095 µM.
With CAGRWTGGKST [PSA position 194, 11 amino acids] the relative binding ratio was 0.0002.
Binder CARAYSEKVT [Kallikrein position 184, 10 amino acids] has a relative binding ratio of 0.003.
LLARAASLSV [Peptide 63.0031 … (PAP.7.V10)] gave an IC50 of 0.378 µM.
Work on FLNESYKHEQV [Peptide 1419.55 … (PAP.92)] yielded an IC50 of 0.381 µM.
For DLPTQEPALGT [PSA position 136, 11 amino acids], the relative binding ratio was 0.0001.
CALPERPSLYT [PSA position 230, 11 amino acids] showed a relative binding ratio of 0.0016.
For LLFFWLDRSVL [Peptide 63.0139 … (PAP.21)], the IC50 was 0.822 µM.

These binders were tested against HLA-A*0201 (human) in the same assay as above. Conditions: remark: other sources report otherwise.
In the case of LLARAASLSL [Peptide 20.0203 … (PAP.7)], the IC50 is reported as 0.5 µM.
VLAKELKFVTL [Peptide 63.0142 … (PAP.30)] showed an IC50 of 0.0069 µM.
For AASLSLGFLFL [Peptide 63.0137 … (PAP.11)], the IC50 was 0.227 µM.
With CAGRWTGGKST [PSA position 194, 11 amino acids] the relative binding ratio was 0.0013.
CARAYSEKVT [Kallikrein position 184, 10 amino acids] gave a relative binding ratio of 0.0074.
For SLSLGFLFLL [Peptide 1419.51 … (PAP.13)], the IC50 was 0.04 µM.
In the case of LLLARAASL [Peptide 20.0044 … (PAP.6)], the IC50 is reported as 0.208 µM.
DLPTQEPAL [PSA position 136, 9 amino acids] gave a relative binding ratio of 0.0003.
For DLPTQEPALGT [PSA position 136, 11 amino acids], the relative binding ratio was 0.0041.
In the case of CALPERPSLYT [PSA position 230, 11 amino acids], the relative binding ratio is reported as 0.0008.

What follows are binders tested against HLA-A*0202 (human) in the same assay as above. Conditions: remark: other sources report otherwise.
For LLARAASLSL [Peptide 20.0203 … (PAP.7)], the IC50 was 0.0052 µM.
Binder VLAKELKFVTL [Peptide 63.0142 … (PAP.30)] has an IC50 of 0.0081 µM.
Work on CAGRWTGGKST [PSA position 194, 11 amino acids] yielded a relative binding ratio of 0.037.
With LLARAASLSV [Peptide 63.0031 … (PAP.7.V10)] the IC50 was 0.01 µM.
Work on FLFLLFFWV [Peptide 60.0203 … (PAP.18.V9)] yielded an IC50 of 0.307 µM.
Work on DLPTQEPALGT [PSA position 136, 11 amino acids] yielded a relative binding ratio of 0.018.
Work on LLFFWLDRSV [Peptide 1097.09 … (PAP.21)] yielded an IC50 of 0.0006 µM.

What follows are binders tested against HLA-A*0203 (human) in the same assay as above. Conditions: remark: other sources report otherwise.
Work on CAGRWTGGKST [PSA position 194, 11 amino acids] yielded a relative binding ratio of 0.025.
With CARAYSEKVT [Kallikrein position 184, 10 amino acids] the relative binding ratio was 0.02.
FLFLLFFWV [Peptide 60.0203 … (PAP.18.V9)] was tested, and the IC50 was 0.625 µM.
Work on DLPTQEPALGT [PSA position 136, 11 amino acids] yielded a relative binding ratio of 0.01.
CALPERPSLYT [PSA position 230, 11 amino acids] gave a relative binding ratio of 0.0071.

These binders were tested against HLA-A*0206 (human) (assay: competition with 125I-labelled standard peptide for purified HLA, gel filtration). Conditions: remark: other sources report otherwise.
GAAPLILSRIV [PSA position 12, 11 amino acids] showed a relative binding ratio of 0.0006.

What follows are binders tested against HLA-A*0202 (human) in the same assay as above. Conditions: remark: other sources report otherwise.
Binder GAAPLILSRIV [PSA position 12, 11 amino acids] has a relative binding ratio of 0.022.

Same assay, conditions: remark: other sources report otherwise; scale: ratio to standard peptide
In the case of LTPKKLQCVDL [PSA peptide, position 162, 11 amino acids], the relative binding ratio is reported as 0.0087.

What follows are binders tested against HLA-A*0203 (human) in the same assay as above. Conditions: remark: other sources report otherwise.
GAAPLILSRIV [PSA position 12, 11 amino acids] was tested, and the relative binding ratio was 0.011.

Same assay, conditions: remark: other sources report otherwise; scale: ratio to standard peptide
For LTPKKLQCVDL [PSA peptide, position 162, 11 amino acids], the relative binding ratio was 0.0074.
